{"source": "paper PMC10698503", "about": "“Phosphatase specificity principles uncovered by MRBLE:Dephos and global substrate identification” (Molecular Systems Biology, 2023)", "molecules": {"B1": {"name": "GAR1_HUMAN (protein, UniProt Q9NY12 1-217, looked up)", "H/ACA ribonucleoprotein …": "MSFRGGGRGGFNRGGGGGGFNRGGSSNHFRGGGGGGGGGNFRGGGRGGFGRGGGRGGFNKGQDQGPPERVVLLGEFLHPCEDDIVCKCTTDENKVPYFNAPVYLENKEQIGKVDEIFGQLRDFYFSVKLSENMKASSFKKLQKFYIDPYKLLPLQRFLPRPPGEKGPPRGGGRGGRGGGRGGGGRGGGRGGGFRGGRGGGGGGFRGGRGGGFRGRGH"}, "B2": {"name": "EBP2_HUMAN (protein, UniProt Q99848 1-306, looked up)", "Probable rRNA-processing …": "MDTPPLSDSESESDESLVTDRELQDAFSRGLLKPGLNVVLEGPKKAVNDVNGLKQCLAEFKRDLEWVERLDVTLGPVPEIGGSEAPAPQNKDQKAVDPEDDFQREMSFYRQAQAAVLAVLPRLHQLKVPTKRPTDYFAEMAKSDLQMQKIRQKLQTKQAAMERSEKAKQLRALRKYGKKVQTEVLQKRQQEKAHMMNAIKKYQKGFSDKLDFLEGDQKPLAQRKKAGAKGQQMRKGPSAKRRYKNQKFGFGGKKKGSKWNTRESYDDVSSFRAKTAHGRGLKRPGKKGSNKRPGKRTREKMKNRTH"}, "B3": {"name": "SF01_HUMAN (protein, UniProt Q15637 2-639, looked up)", "Splicing factor 1": "ATGANATPLDFPSKKRKRSRWNQDTMEQKTVIPGMPTVIPPGLTREQERAYIVQLQIEDLTRKLRTGDLGIPPNPEDRSPSPEPIYNSEGKRLNTREFRTRKKLEEERHNLITEMVALNPDFKPPADYKPPATRVSDKVMIPQDEYPEINFVGLLIGPRGNTLKNIEKECNAKIMIRGKGSVKEGKVGRKDGQMLPGEDEPLHALVTANTMENVKKAVEQIRNILKQGIETPEDQNDLRKMQLRELARLNGTLREDDNRILRPWQSSETRSITNTTVCTKCGGAGHIASDCKFQRPGDPQSAQDKARMDKEYLSLMAELGEAPVPASVGSTSGPATTPLASAPRPAAPANNPPPPSLMSTTQSRPPWMNSGPSESRPYHGMHGGGPGGPGGGPHSFPHPLPSLTGGHGGHPMQHNPNGPPPPWMQPPPPPMNQGPHPPGHHGPPPMDQYLGSTPVGSGVYRLHQGKGMMPPPPMGMMPPPPPPPSGQPPPPPSGPLPPWQQQQQQPPPPPPPSSSMASSTPLPWQQNTTTTTTSAGTGSIPPWQQQQAAAAASPGAPQMQGNPTMVPLPPGVQPPLPPGAPPPPPPPPPGSAGMMYAPPPPPPPPMDPSNFVTMMGMGVAGMPPFGMPPAPPPPPPQN"}}}
{"system": "Venus-B55", "assay": "Affinity purification (pulldown) of YFP/Venus-B55 from mitotic cells, label-free LC-MS/MS", "assay_type": "binding, human", "details": "enrichment in Venus-B55 pulldown over Venus control, from 3 replicates each", "text": "(§1) We defined interactomes of PP1γ and B55α during mitosis using affinity purification of YFP‐tagged subunits and also proximity‐dependent ligation using miniTurbo to capture interactions at mitotic exit (Appendix Fig S8) (Branon et al, [2018]; Sears et al, [2019]). […] These identified proteins can constitute both regulators and substrates. […] To understand how these protein interactions might shape dephosphorylation, we first aimed at generating interactome networks and overlay regulated sites. We integrated interactomes and information from the STRING database (Szklarczyk et al, [2023]) with our regulated phosphorylation sites to generate a network of complexes and dephosphorylation sites (Fig 4C and Appendix Fig S9A). For PP1, we also integrated information on known and predicted RVxF motifs (Smith et al, [2019]). […] As an example, CASC5 (KNL1) could scaffold PP1 dephosphorylation of CENPC S261, a phosphorylation site in a nuclear localization sequence. In agreement with previous work, PP2A‐B55 regulated dephosphorylation of several nucleoporins at mitotic exit consistent with Nup153 and TPR being present in the interactomes (Cundell et al, [2016]).\n(§2) PP1 and B55 cDNAs were cloned into modified versions of pcDNA5/FRT/TO (Invitrogen) to make N‐terminal fusions to YFP, BioID, or TurboID. Stable cell lines were generated into HeLa/FRT/TRex cells (kind gift from S. Taylor), and for YFP affinity, purification cells were synchronized with thymidine and released into nocodazole‐containing media to arrest them in mitosis. Cells were resuspended in lysis buffer (50 mM NaCl, 50 mM Tris 7,4, 1 mM EDTA, 0.1% NP40, 1 mM DTT, and protease inhibitor cocktail), and following sonication, the lysate was clarified by centrifugation. Cell lysate was incubated with GFP‐Trap beads (Chromotek) for 1 h, washed 3 × 1 ml with lysis buffer, and resuspended in SDS–PAGE loading buffer.\n(§3) The Q‐Exactive Plus was set to perform an Orbitrap MS1 scan (R = 70 K; AGC target = 1e6) from 350 to 1,500 m/z, followed by HCD MS2 spectra on the 10 most abundant precursor ions detected by Orbitrap scanning (R = 17.5 K; AGC target = 1e5; max ion time = 50 ms) before repeating the cycle. Precursor ions were isolated for HCD by quadrupole isolation at width = 1 m/z and HCD fragmentation at 26 normalized collision energy (NCE). Charge state 2, 3, and 4 ions were selected for MS2. Precursor ions were added to a dynamic exclusion list ± 20 ppm for 15 s. […] Static modifications included carbamidomethylcysteine and variable modifications included oxidized methionine. […] Missing values were imputed from a normal distribution in Perseus to enable statistical analysis and visualization by volcano plot (Tyanova et al, [2016]). Statistical analysis was carried out in Perseus by two‐tailed Student's t‐test."}
{"molecule": "B1", "log2 ratio [Venus-B55/Venus]": 3.89}
{"molecule": "B2", "log2 ratio [Venus-B55/Venus]": 1.82}
{"molecule": "B3", "log2 ratio [Venus-B55/Venus]": 3.74}
{"system": "Venus-B55", "assay": "Affinity purification (pulldown) of YFP/Venus-B55 from mitotic cells, label-free LC-MS/MS", "assay_type": "binding, human", "details": "pulldown of Venus-B55 from mitotic cells, label-free LC-MS/MS, log2 IBAQ of co-purified protein, replicate 1", "text": "as §1, §2, §3"}
{"molecule": "B1", "log2 IBAQ [Venus-B55 1]": 18.68}
{"molecule": "B2", "log2 IBAQ [Venus-B55 1]": 20.14}
{"molecule": "B3", "log2 IBAQ [Venus-B55 1]": 18.20}
{"system": "Venus-B55", "assay": "Affinity purification (pulldown) of YFP/Venus-B55 from mitotic cells, label-free LC-MS/MS", "assay_type": "binding, human", "details": "pulldown of Venus-B55 from mitotic cells, label-free LC-MS/MS, log2 IBAQ of co-purified protein, replicate 2", "text": "as §1, §2, §3"}
{"molecule": "B1", "log2 IBAQ [Venus-B55 2]": 18.13}
{"molecule": "B2", "log2 IBAQ [Venus-B55 2]": 18.75}
{"molecule": "B3", "log2 IBAQ [Venus-B55 2]": 19.35}
{"system": "Venus-B55", "assay": "Affinity purification (pulldown) of YFP/Venus-B55 from mitotic cells, label-free LC-MS/MS", "assay_type": "binding, human", "details": "pulldown of Venus-B55 from mitotic cells, label-free LC-MS/MS, log2 IBAQ of co-purified protein, replicate 3", "text": "as §1, §2, §3"}
{"molecule": "B1", "log2 IBAQ [Venus-B55 3]": 17.35}
{"molecule": "B2", "log2 IBAQ [Venus-B55 3]": 20.44}
{"molecule": "B3", "log2 IBAQ [Venus-B55 3]": 19.45}
{"system": "Venus-PP1", "assay": "Affinity purification (pulldown) of YFP/Venus-PP1 from mitotic cells, label-free LC-MS/MS", "assay_type": "binding, human", "details": "assignment of the co-purified protein as interactor of Venus-B55 and/or Venus-PP1 (both pulldowns)", "text": "as §1, §2, §3"}
{"molecule": "B1", "B55 or PP1?": "B55/PP1"}
{"molecule": "B2", "B55 or PP1?": "B55/PP1"}
{"molecule": "B3", "B55 or PP1?": "B55/PP1"}
{"system": "Venus-PP1", "assay": "Affinity purification (pulldown) of YFP/Venus-PP1 from mitotic cells, label-free LC-MS/MS", "assay_type": "binding, human", "details": "enrichment in Venus-PP1 pulldown over Venus control, from 3 replicates each", "text": "as §1, §2, §3"}
{"molecule": "B1", "log2 ratio [Venus-PP1/Venus]": 5.49}
{"molecule": "B2", "log2 ratio [Venus-PP1/Venus]": 6.44}
{"molecule": "B3", "log2 ratio [Venus-PP1/Venus]": 4.15}
{"system": "Venus-PP1", "assay": "Affinity purification (pulldown) of YFP/Venus-PP1 from mitotic cells, label-free LC-MS/MS", "assay_type": "binding, human", "details": "pulldown of Venus-PP1 from mitotic cells, label-free LC-MS/MS, log2 IBAQ of co-purified protein, replicate 1", "text": "as §1, §2, §3"}
{"molecule": "B1", "log2 IBAQ [Venus-PP1 1]": 19.45}
{"molecule": "B2", "log2 IBAQ [Venus-PP1 1]": 24.17}
{"molecule": "B3", "log2 IBAQ [Venus-PP1 1]": 19.13}
{"system": "Venus-PP1", "assay": "Affinity purification (pulldown) of YFP/Venus-PP1 from mitotic cells, label-free LC-MS/MS", "assay_type": "binding, human", "details": "pulldown of Venus-PP1 from mitotic cells, label-free LC-MS/MS, log2 IBAQ of co-purified protein, replicate 2", "text": "as §1, §2, §3"}
{"molecule": "B1", "log2 IBAQ [Venus-PP1 2]": 19.86}
{"molecule": "B2", "log2 IBAQ [Venus-PP1 2]": 24.63}
{"molecule": "B3", "log2 IBAQ [Venus-PP1 2]": 19.69}
{"system": "Venus-PP1", "assay": "Affinity purification (pulldown) of YFP/Venus-PP1 from mitotic cells, label-free LC-MS/MS", "assay_type": "binding, human", "details": "pulldown of Venus-PP1 from mitotic cells, label-free LC-MS/MS, log2 IBAQ of co-purified protein, replicate 3", "text": "as §1, §2, §3"}
{"molecule": "B1", "log2 IBAQ [Venus-PP1 3]": 24.60}
{"molecule": "B2", "log2 IBAQ [Venus-PP1 3]": 27.56}
{"molecule": "B3", "log2 IBAQ [Venus-PP1 3]": 20.57}
